One data set addresses T1, trypsin (Bos taurus, UniProt P00760).
T1 construct: gene PRSS1
T1 sequence (P00760 24-246): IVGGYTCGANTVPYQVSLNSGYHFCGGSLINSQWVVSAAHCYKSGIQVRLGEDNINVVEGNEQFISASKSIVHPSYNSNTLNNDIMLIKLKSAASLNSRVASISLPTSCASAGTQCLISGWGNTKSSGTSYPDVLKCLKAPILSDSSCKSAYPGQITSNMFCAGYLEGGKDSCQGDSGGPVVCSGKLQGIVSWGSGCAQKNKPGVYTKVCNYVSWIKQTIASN
The data set is described as follows: Peptide resistance to trypsin digestion (RP-HPLC). In kind it is in vitro ADME. How it is done:
Various peptides were suspended in 500 μl of ddH2O at a stock concentration of 2 mg/ml. Reactions were prepared with 12.5 μg peptide and 5 μg trypsin in 25 mM Tris/75 mM NaCl buffer (pH 7.0) and incubated for 30 minutes at 37.5° C. Reactions were quenched with 5 μg of soybean trypsin inhibitor and 10 mM dithiothreitol (DTT). Reversed phase HPLC (RP-HPLC) was run on samples using an Agilent 1260 HPLC equipped with a C-18 Poroshell 120B column. Sample were analyzed by a gradient method with a mobile phase of Solvent A (water with 0.1% TFA) and Solvent B (acetonitrile with 0.1% TFA). Solvent B was ramped up from 5%-45% of the mobile phase over a period of 10 minutes.

A short description of data set [1]: Temperature stability of peptides (RP-HPLC). In kind it is physicochemical. How it is done:
This example illustrates peptide stability at high temperatures. Peptides were first suspended in 500 μl of ddH2O to a stock concentration of 2 mg/ml. Reactions were prepared by adding 6.25 μl of peptide from the stock solution with 95 μl ddH2O and incubated at room temperature, 70° C., or 100° C. for one hour in a Thermocycler. RP-HPLC was then run on samples using an Agilent 1260 HPLC equipped with a C-18 Poroshell 120B column. Sample were analyzed by a gradient method with a mobile phase of Solvent A (water with 0.1% TFA) and Solvent B (acetonitrile with 0.1% TFA). Solvent B was ramped up from 5%-45% of the mobile phase over a period of 10 minutes.
Peptides of SEQ ID NO: 28 and SEQ ID NO: 483 were analyzed by HPLC after incubation at room temperature (25° C.), 70° C., or 100° C. for one hour.

On to “GSISIGIKCSPSIDLCEGQCRIRKYFTGYCSGDTCHCSG [SEQ ID NO: 483]”, for which the “Resistance to degradation by trypsin” value in the data set with trypsin (12.5 ug peptide, 5 ug trypsin, pH 7.0, 30 minutes at 37.5 C) was “partially resistant to degradation by trypsin”. Further, the “Resistance to reduction by DTT (FIG. 54)” value with trypsin (10 mM DTT) was “partially resistant to reduction by DTT”. Besides, the “Stability after heat incubation (HPLC)” value is listed as “resistant to heat-induced degradation” in data set [1] (70 C for 1 hour) and “underwent various degrees of degradation” in data set [1] (100 C for 1 hour).

These data come from US11648290B2, “Cartilage-homing peptides” (FRED HUTCHINSON CANCER CENTER, priority 2015, dated 2023).
